Measured values taken from patent publication US20240084027A1 (BEIJING MABWORKS, published 2024).
Read-outs that look alike come from different tables or passages of the source. Values belong to the binder of their own block, whether it stands above or below them.

What was measured:
human PD-L1-his protein [1] = target: T1, human PD-L1-his protein (human, UniProt Q9NZQ7 19-238); test: SPR on huPDL1 loaded on the chip; 3C2VH6VL5 injected first, anti-PD-L1 sdAb second
T1 construct: extracellular domain; also called human PD-L1 (ECD)-his; human PD-L1 protein; not shown: his tag
T1 sequence (Q9NZQ7 19-238): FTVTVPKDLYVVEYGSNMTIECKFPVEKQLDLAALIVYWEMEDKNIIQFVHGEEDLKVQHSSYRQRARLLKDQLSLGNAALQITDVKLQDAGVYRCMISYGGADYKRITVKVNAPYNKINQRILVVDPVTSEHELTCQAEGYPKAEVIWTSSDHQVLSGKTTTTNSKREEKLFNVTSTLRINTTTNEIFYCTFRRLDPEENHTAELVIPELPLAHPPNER
Protocol: To further determine the epitopes the two binding arms of the bi- or multi-specific antibodies bind, a competitive SPR binding assay was performed. Briefly, 1 μg/ml human PD-L1 (ECD)-his proteins (Cat #:10084-H08H, Sino Biological, CN) were coupled to a CM5 biosensor chip (Cat #:BR-1005-30, GE Life Sciences, USA). The un-reacted groups were then blocked with 1 M ethanolamine. The anti-PD-L1 antibodies, 3C2VH6VL5 and 56E5VH5VL4, of 5 μg/ml were respectively injected into the SPR running buffer (IBS-EP buffer, pH7.4, Cat #:BR-1006-69, GE Life Sciences, USA) at 30 μl/min. Then, a second anti-PD-L 1 antibody (i.e., the anti-PD-L1 nanobody) of 5 μg/ml was injected into the SPR running buffer at 30 μL/min. The binding affinity was calculated with the RUs of blank controls subtracted, and the association rate (kₐ) and dissociation rate (kd) were determined using the one-to-one Langmuir binding model.

[2] = target: T2, human CD40 on HEK293A/human CD40 cells (human, UniProt P25942 21-277); test: cell-based or functional assay
T2 sequence (P25942 21-277 limits assumed): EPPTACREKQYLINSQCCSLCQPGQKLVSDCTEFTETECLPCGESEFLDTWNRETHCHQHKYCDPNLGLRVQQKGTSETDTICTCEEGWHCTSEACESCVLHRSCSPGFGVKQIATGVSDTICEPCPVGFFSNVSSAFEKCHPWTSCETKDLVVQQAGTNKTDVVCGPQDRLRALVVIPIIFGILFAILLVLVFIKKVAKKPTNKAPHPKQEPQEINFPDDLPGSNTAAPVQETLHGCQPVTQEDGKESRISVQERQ

[3] = target: T2, human CD40 on HEK293A/human CD40 cells; test: cell-based or functional assay; remark: listed apart in the source
[4] = target: T2, human CD40 on HEK293A/human CD40 cells; test: FACS on HEK293A/human CD40 cells
Protocol: (§1) The bispecific antibodies as prepared above were tested for their binding capability to cell surface human, monkey and mouse CD40 proteins by FACS, using the HEK293A cells prepared in Example 1 that stably expressed human, monkey or mouse CD40. Briefly, a 96-well plate was seeded with 10⁵ HEK293A cells in 50 μl PBS, and then added with 100 μl serially diluted anti-CD40 antibody 714VH2VL2 and the bispecific antibodies of the disclosure (starting concentration at 40 μg/ml). After incubation at 4° C. for 1 h, the plate was washed by PBST for 3 times. The plate was added with 1:500 diluted APC-goat anti-mouse IgG (Cat #:405308, BioLegen, USA), incubated at 4° for 1 h, washed with PBS for 3 times, and subjected to fluorescence measurement in a FACS machine (BD).
(§2) Following the protocols in Example 4 and Example 5, the bi- or multi-specific antibodies of the disclosure were tested for their binding capability to human PD-L1 and human CD40 proteins by FACS using the HEK293A cells prepared in Example 1 that stably expressed human PD-L1 or human CD40.

[5] = target: T2, human CD40 on HEK293A/human CD40 cells; test: FACS on HEK293A/human CD40 cells; remark: listed apart in the source
Protocol: as §1, §2

[6] = target: T3, human PD-L1 on HEK293A/human PD-L1 cells (human, UniProt Q9NZQ7 19-290); test: FACS on HEK293A/human PD-L1 cells
T3 sequence (Q9NZQ7 19-290 limits assumed): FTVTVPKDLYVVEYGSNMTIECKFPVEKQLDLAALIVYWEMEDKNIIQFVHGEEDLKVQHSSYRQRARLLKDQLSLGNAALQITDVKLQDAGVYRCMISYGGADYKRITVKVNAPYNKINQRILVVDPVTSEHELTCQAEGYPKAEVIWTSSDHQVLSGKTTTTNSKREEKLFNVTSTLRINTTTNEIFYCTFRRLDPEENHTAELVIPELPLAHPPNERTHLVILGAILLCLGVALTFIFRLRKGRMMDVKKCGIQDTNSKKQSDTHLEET
Method in brief: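 HEK293A cells stably expressing the target (10⁵ cells/well) incubated with serially diluted antibodies from 40 μg/ml, 1 h at 4 °C. After PBST washes, bound antibody detected with 1:500 APC-goat anti-mouse IgG for 1 h at 4 °C and read by flow cytometry.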

human CD40-his protein = target: T4, human CD40-his protein (human, UniProt P25942 21-193); test: SPR (BIAcore 8K), human CD40-his coupled to CM5 chip, antibody injected
T4 construct: Bought protein; also called human CD40 protein; CD40 molecules; not shown: his tag
T4 sequence (P25942 21-193 limits assumed): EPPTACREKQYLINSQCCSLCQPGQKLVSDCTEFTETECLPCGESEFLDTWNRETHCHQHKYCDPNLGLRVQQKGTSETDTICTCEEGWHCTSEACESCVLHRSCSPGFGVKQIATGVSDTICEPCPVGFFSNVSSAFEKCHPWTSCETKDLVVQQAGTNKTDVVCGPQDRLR
Description: (§3) Using BIAcore™ 8K instrument (GE Life Sciences, US), the binding affinity of the bi- or multi-specific antibodies to human CD40 and PD-L1 was quantitatively measured. Briefly, 100-200 response units (RU) of human CD40-his protein (Cat #:10774-1108H, Sino Biological, CN) or human PD-L1-his protein (Cat #:10084-H08H, Sino Biological, CN) were coupled to CM5 biosensor chips (Cat #:BR-1005-30, GE Life Sciences. USA). The un-reacted groups were then blocked with 1 M ethanolamine. Serially diluted antibodies at concentrations ranging from 0.3 μM to 10 μM were injected into the SPR running buffer (HBS-EP buffer, pH7.4, Cat #:BR-1006-69, GE Life Sciences, USA) at 30 μL/min. The binding affinity was calculated with the RUs of blank controls subtracted, and the association rate (kₐ) and dissociation rate (kd) were determined using the one-to-one Langmuir binding model (BIA Evaluation Software, GE Life Sciences, USA). The equilibrium dissociation constant KD was calculated as the kd/kₐ ratio.

human PD-L1-his protein [7] = target: T1, human PD-L1-his protein; test: SPR (BIAcore 8K), human PD-L1-his coupled to CM5 chip, antibody injected
Description: as §3

[8] = target: T3, human PD-L1 on HEK293A/human PD-L1 cells; test: FACS blocking assay on HEK293A/human PD-L1 cells; blocked ligand PD-1-Fc
Method in brief: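 Cells preincubated with serially diluted antibody 1 h at 4° C, washed, then exposed to 200 μg/ml PD-1-Fc for 1 h at 4° C. Bound PD-1-Fc detected with PE-anti-human IgG and read by flow cytometry.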

[9] = target: T3, human PD-L1 on HEK293A/human PD-L1 cells; test: as above; remark: listed apart in the source
Protocol: (§4) The bispecific antibodies were tested for their blocking activity on PD-1-PD-L1 binding by FACS using the HEK293A cells stably expressing human PD-L1 molecules as prepared in Example 1. Briefly, a 96-well plate was seeded with 10⁵ HEK293A/human PD-L1 cells in 100 μl cell culture medium, and then added with 50 μl serially diluted anti-PD-L1 antibody 56E5VH5VL4 or MBS307-3 molecules. After incubation at 4° C. for 1 h. the plate was washed with PBST for 3 times, added with 100 μl 200 μg/ml PD-1-Fc fusion proteins (Cat #:10377-10211, Sino Biological, CN), incubated at 4° C. for 1 h, washed with PBST for 3 times, and added with 1:500 diluted PE-goat anti-human IgG (Cat #:PAI-86078, Thermofisher, USA). After incubation at 4° C. for 1 h, the plate was washed with PBST for 3 times and measured for fluorescence using a FACS machine (BD).
(§5) Following the protocol of Example 7, the bi- or multi-specific antibodies were tested for their capability to block PD-1-PD-L1 binding by FACS, using the HEK293A cells prepared in Example 1 that stably expressed human PD-L1 molecules.

[10] = target: T3, human PD-L1 on HEK293A/human PD-L1 cells; test: as above; remark: listed apart in the source
Protocol: as §4, §5

binding result (human PD-L1-his protein [1]): binds
B1: anti-PD-L1 nanobody (VHH)
VHH: QVQLLESGGGLVQPGGSLRLSCAASGFAFSDYAMTWVRQAPGKGLEWVSTINSGGQSSSYLDSVKGRFTSSRDNSKNTLYLQMNSLRAEDTAVYYCAKGVYMPWKAPKGQGTLVTVSS
notes: also called monospecific anti-PD-L1 nanobody

EC50 (read off the curve); HEK-Blue/CD40 reporter, OD630, plate coated with human PD-L1-his [2]: ~0.02 µg/mL
EC50 (read off the curve); HEK-Blue/CD40 reporter, OD630, plate coated with human PD-L1-his [3]: ~0.01 µg/mL
EC50 (read off the curve) [4]: ~0.07 µg/mL
EC50 (read off the curve) [5]: ~0.02 µg/mL
EC50 (read off the curve) [6]: ~0.2 µg/mL
Kd (human CD40-his protein): 2.9 nM
Kd (human PD-L1-his protein [7]): 0.683 nM
IC50 (read off the curve) [8]: ~0.6 µg/mL
IC50 (read off the curve) [9]: ~0.2 µg/mL
IC50 (read off the curve) [10]: ~0.2 µg/mL
B2: MBS307-9 (bispecific antibody, human IgG1, kappa, L234A L235A)
heavy 1: QVQLQESGPGLVKPSDTLSLTCAVSGYSITTNYYWNWIRQPPGKGLEWMGYIKYDGSNNYNPSLKNRITISVDTSKNQFSLKLSSVTAVDTAVYYCARLDYWGQGTLVTVSSASTKGPSVFPLAPSSKSTSGGTAALGCLVKDYFPEPVTVSWNSGALTSGVHTFPAVLQSSGLYSLSSVVTVPSSSLGTQTYICNVNHKPSNTKVDKKVEPKSCDKTHTCPPCPAPEAAGGPSVFLFPPKPKDTLMISRTPEVTCVVVDVSHEDPEVKFNWYVDGVEVHNAKTKPREEQYNSTYRVVSVLTVLHQDWLNGKEYKCKVSNKALPAPIEKTISKAKGQPREPQVYTLPPSREEMTKNQVSLWCLVKGFYPSDIAVEWESNGQPENNYKTTPPVLDSDGSFFLYSKLTVDKSRWQQGNVFSCSVMHEALHNHYTQKSLSLSPGGGGGQVQLQESGPGLVKPSQTLSLTCTVSGGSITSDYWNWIRQHPGNKLEYMGYISYTGSTYYNPSLKSRISITRDTSKNQFSLKLSSVTTADTAVYYCARYRDWDVRAMDYWGQGTTVTVSSGGGGSGGGGSGGGGSGGGGSDIVMTQSPDSLAVSLGEKVTMNCKSSQSLLISGNQKNFLTWYQQKPGQPPKLLIYWASTRESGVPDRFSGSGSGTDFTLTISSLQAEDEAVYYCQNDFGFPFTFGQGTKLTAK
heavy 2: QVQLQESGPGLVKPSDTLSLTCAVSGYSITTNYYWNWIRQPPGKGLEWMGYIKYDGSNNYNPSLKNRITISVDTSKNQFSLKLSSVTAVDTAVYYCARLDYWGQGTLVTVSSASTKGPSVFPLAPSSKSTSGGTAALGCLVKDYFPEPVTVSWNSGALTSGVHTFPAVLQSSGLYSLSSVVTVPSSSLGTQTYICNVNHKPSNTKVDKKVEPKSCDKTHTCPPCPAPEAAGGPSVFLFPPKPKDTLMISRTPEVTCVVVDVSHEDPEVKFNWYVDGVEVHNAKTKPREEQYNSTYRVVSVLTVLHQDWLNGKEYKCKVSNKALPAPIEKTISKAKGQPREPQVYTLPPSREEMTKNQVSLSCAVKGFYPSDIAVEWESNGQPENNYKTTPPVLDSDGSFFLVSKLTVDKSRWQQGNVFSCSVMHEALHNHYTQKSLSLSPGGGGGQVQLVQSGAEVKKPGASVKVSCKASGYTFTDYHVNWVRQAPGQGLEWIGWIFPGSGRTFYTDKFKGRVTMTVDTSTSTVYMELSSLRSEDTAVYYCATDYGTSGYGLVYWGQGTTVTVSSGGGGSGGGGSGGGGSGGGGSDIQMTQSPSSLSASVGDRVTITCKASDRINNWLAWYQQKPGKAPKLLISGATSLETGVPSRFSGSGSGTDFTLTISSLQPEDEATYYCQQYWNIPFTFGQGTKLTAK
light: DVVLTQSPLSLPVTLGQPASISCRSSQSLENSNGNTFLNWFQQRPGQSPRLLIYKVSNRFSGVPDRFSGSGSGTDFTLKISRVEAEDVGVYYCLQVTHVPFTFGQGTKLEIKRTVAAPSVFIFPPSDEQLKSGTASVVCLLNNFYPREAKVQWKVDNALQSGNSQESVTEQDSKDSTYSLSSTLTLSKADYEKHKVYACEVTHQGLSSPVTKSFNRGEC
notes: Asymmetric: knob chain with the 56E5VH5VL4 scFv, hole chain with the 3C2VH6VL5 scFv, linker 4 (short linker); also called MBS307-9-1 + MBS307-9-2
